This is an account of results in patent publication US20230257458A1 (SUNSHINE LAKE PHARMA, published 2023).

Assay [1] addresses T1, recombinant human protein antigen hu-IL-11-His tag (human, UniProt P20809 22-199).
T1 construct: Expressed in CHO, Ni column and Superdex75; not shown: His tag
T1 sequence (looked up): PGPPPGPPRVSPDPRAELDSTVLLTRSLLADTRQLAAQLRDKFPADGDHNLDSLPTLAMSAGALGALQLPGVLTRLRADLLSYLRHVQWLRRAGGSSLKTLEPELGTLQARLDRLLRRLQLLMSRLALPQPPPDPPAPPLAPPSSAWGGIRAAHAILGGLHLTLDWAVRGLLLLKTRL
The assay is described as follows: BLI, IL-11 (His tag) on Ni-NTA sensor, antibody as analyte. Here is the method: Bio-Layer Interferometry (BLI) was used for binding affinity determination. […] The analytes were diluted in 7 concentration gradients, the binding time was 60 s and the dissociation time was 1000 s. The buffer was 20 mM PBS, 0.15M NaCl, 0.1% BSA, 0.05% Tween 20, pH 7.

Assay [2] concerns the target T2, IL-11 protein (UniProt P20809 22-199, limits assumed).
T2 construct: also called IL-11 antigen
T2 sequence (looked up): T1 sequence (looked up)
Nature of the assay: SPR (Biacore), IgG captured, IL-11 6.25-400 nM as analyte. How it is done:
(§1) The measure method included the steps of capturing the humanized antibody at a flow rate of 10 ul/min. […] Finally the chip was regenerated with 10 mM glycine buffer.

The target in assay [3] is T3, recombinant OSM (Genscript-z03132) (UniProt P13725 26-234, limits assumed).
T3 sequence (looked up): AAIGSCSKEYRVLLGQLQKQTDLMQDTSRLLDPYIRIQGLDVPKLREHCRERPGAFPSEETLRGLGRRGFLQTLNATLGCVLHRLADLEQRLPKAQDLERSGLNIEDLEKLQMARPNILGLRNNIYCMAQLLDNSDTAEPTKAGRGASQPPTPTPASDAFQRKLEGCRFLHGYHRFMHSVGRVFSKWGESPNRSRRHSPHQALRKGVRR
Nature of the assay: ELISA, cytokine coated.

The target in assay [4] is recombinant IL-6 (Sinobiological-10395-HNAE) (UniProt P05231 30-212). Nature of the assay: ELISA, cytokine coated.
The target in assay [5] is recombinant LIF (Peprotech, 300-05) (UniProt P15018 23-202). Nature of the assay: ELISA, cytokine coated.
Assay [6] concerns the target T4, recombinant CT-1 (R&D systems, 612-CD-010) (UniProt Q16619 2-201, limits assumed).
T4 sequence (looked up): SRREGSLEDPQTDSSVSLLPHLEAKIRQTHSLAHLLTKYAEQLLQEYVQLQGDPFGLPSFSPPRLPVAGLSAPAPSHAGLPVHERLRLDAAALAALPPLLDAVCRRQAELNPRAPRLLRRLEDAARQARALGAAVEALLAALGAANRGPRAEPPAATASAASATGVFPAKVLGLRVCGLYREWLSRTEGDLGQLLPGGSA
The assay is described as follows: ELISA, cytokine coated.

In assay [7] the target is T5, recombinant CNTF (R&D systems, 257-NT-010) (UniProt P26441 2-200).
T5 sequence (looked up): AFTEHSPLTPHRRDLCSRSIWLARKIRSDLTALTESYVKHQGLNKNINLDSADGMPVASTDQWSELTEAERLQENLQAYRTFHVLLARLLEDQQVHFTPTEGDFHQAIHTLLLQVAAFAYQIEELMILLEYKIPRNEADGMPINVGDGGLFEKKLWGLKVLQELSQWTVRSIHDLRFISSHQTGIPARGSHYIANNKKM
The assay is described as follows: ELISA, cytokine coated.

Assay [8] has as its target T6, recombinant IL-31 (Peprotech, 200-31) (UniProt Q6EBC2 24-164).
T6 sequence (looked up): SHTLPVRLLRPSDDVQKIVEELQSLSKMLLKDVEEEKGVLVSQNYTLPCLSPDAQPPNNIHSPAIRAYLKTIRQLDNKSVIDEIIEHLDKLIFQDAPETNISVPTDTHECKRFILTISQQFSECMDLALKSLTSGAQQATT
The assay is described as follows: ELISA, cytokine coated.

In assay [9] the target is T7, IL-11-Fc protein (UniProt P20809 22-199, limits assumed).
T7 construct: also called IL-11 recombinant protein with Fc tag; not shown: Fc tag
T7 sequence (looked up): T1 sequence (looked up)
The assay is described as follows: flow competition: IL-11-Fc + antibody dilutions on membrane-IL-11R CHO cells. Here is the method: Then the plate was incubated with 1.5*10\hat{ }5 membrane-IL-11R CHO cells (100 ul/well) for 1 h at room temperature. After incubation, the plate was centrifuged at 1500 rpm for 5 min, washed three times with PBS, and 1:400 diluted flow secondary antibody Goat-anti-Fc-FITC (Abcam, ab98529) was added with 200 ul/well. Then, the plate was incubated at 4° C. for 1 h, centrifuged at 1500 rpm for 5 min, washed three times with PBS, resuspended cells in 180 ul PBS, and detected by flow cytometry.

For assay [10], the target named is T2, IL-11 protein. The assay is described as follows: flow competition: IL-11 + antibody on IL-11R cells; lower = more blocking. The text has this: Cell lines with high secretion of specific antibody were selected for expanded culture and cryopreservation.
Assay [11] addresses T2, IL-11 protein. The assay is described as follows: SPR (Biacore), antibody captured, 400 nM IL-11 as analyte. Here is the method: as §1
The target of assay [12] is T7, IL-11-Fc protein. The assay is described as follows: flow competition: IL-11-Fc + antibody gradient on membrane-IL-11R CHO cells; 5-20E11-5F2 antibody. The text has this: The secondary antibody used in the detection was a secondary antibody conjugated with a FITC fluorophore (Goat-anti-Fc-FITC) (Abcam, ab98529).

Sequence of recombinant LIF (Peprotech, 300-05) (P15018 23-202 limits assumed): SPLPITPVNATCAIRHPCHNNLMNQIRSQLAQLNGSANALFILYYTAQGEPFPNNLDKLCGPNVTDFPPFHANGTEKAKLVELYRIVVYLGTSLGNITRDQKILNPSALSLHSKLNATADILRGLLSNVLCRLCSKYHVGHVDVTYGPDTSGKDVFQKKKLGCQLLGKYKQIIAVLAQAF

B1: 5-20E11-5F2 (antibody, human IgG1, kappa, V domains shown)
VH: QVQLQQSGAELVRPGTSAKISCKASDYTFTNYWLGWLKQRPGHGLEWIGHIYPGGGYTNYNEKFKGKATLTADTSSSTAYMQLSSLTSEDSAVYFCARVRSGNDALDFWGQGTSVTVSS
VL: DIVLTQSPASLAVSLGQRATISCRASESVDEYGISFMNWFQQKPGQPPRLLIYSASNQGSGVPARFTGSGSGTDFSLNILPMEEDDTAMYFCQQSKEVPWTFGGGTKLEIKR
notes: also called 5-20E11-5F2 antibody; 5-20E11-5F2 mAb
For the molecule B1, the Kd amounted to 0.069 nM in assay [1], 6.41 nM in assay [2] and 2.09 nM in [11]. Further, the koff was 1.21e-05 s⁻¹ in assay [1], 0.000433 s⁻¹ in [2] and 0.000122 s⁻¹ in assay [11]. Besides, the values for the kon in [1], in assay [2] and in assay [11] were 175000 M⁻¹ s⁻¹, 67600 M⁻¹ s⁻¹ and 58400 M⁻¹ s⁻¹, respectively. In addition, the OD450 nm in [3] was 0.045; in [4], 0.049; in [5] it was 0.037; in assay [6], 0.034; in assay [7], 0.036; in assay [8] it was 0.036. In addition, in [9], the EC50 was 7.54 mg/L. For the same molecule, the “FITC Mean” value in assay [10] stood at 3110. For the same molecule, the IC50 in assay [12] is approximately 21 mg/L.
